T1: 4H953-bA
T1 chain: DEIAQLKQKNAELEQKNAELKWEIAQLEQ

T2: 4H908-bN
T2 chain: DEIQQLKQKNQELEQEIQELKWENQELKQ

T3: 4H908-bA
T3 chain: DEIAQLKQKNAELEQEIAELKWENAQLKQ

T4: 4H968-bA
T4 chain: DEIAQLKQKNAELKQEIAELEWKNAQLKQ

T5: 4H967-bA
T5 chain: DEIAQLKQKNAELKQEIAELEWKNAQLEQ

T6: 4H780-bA
T6 chain: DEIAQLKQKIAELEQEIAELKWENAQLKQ

T7: P11mS
T7 chain: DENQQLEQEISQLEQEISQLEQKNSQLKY

T8: 4H918-bA
T8 chain: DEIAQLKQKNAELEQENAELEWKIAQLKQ

T9: 4H883-bA
T9 chain: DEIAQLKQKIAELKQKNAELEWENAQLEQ

T10: 4H797-bA
T10 chain: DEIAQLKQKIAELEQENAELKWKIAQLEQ

T11: 4H855-bA
T11 chain: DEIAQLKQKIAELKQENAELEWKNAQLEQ

T12: 4H754-bA
T12 chain: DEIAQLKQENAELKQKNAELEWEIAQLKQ

T13: 4H470-bN
T13 chain: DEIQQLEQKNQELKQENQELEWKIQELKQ

T14: 4H3907-bN
T14 chain: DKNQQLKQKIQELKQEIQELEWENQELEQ

T15: 4H2745-bN
T15 chain: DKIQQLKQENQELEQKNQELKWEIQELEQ

T16: 4H3961-bN
T16 chain: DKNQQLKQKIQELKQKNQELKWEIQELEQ

T17: 4H363-bN
T17 chain: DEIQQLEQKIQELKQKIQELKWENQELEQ

T18: 4H2568-bN
T18 chain: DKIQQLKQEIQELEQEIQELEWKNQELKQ

T19: 4H344-bN
T19 chain: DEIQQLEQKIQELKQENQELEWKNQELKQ

T20: 4H2619-bN
T20 chain: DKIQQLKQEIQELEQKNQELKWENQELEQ


Experiments:
Test in all cases: two-hybrid library CCNG1;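 also: natural log of median RNA to DNA barcode read ratio; higher means stronger binding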
[1] = target: T1, 4H953-bA
[2] = target: T2, 4H908-bN
[3] = target: T3, 4H908-bA
[4] = target: T4, 4H968-bA
[5] = target: T5, 4H967-bA
[6] = target: T6, 4H780-bA
[7] = target: T7, P11mS
[8] = target: T8, 4H918-bA
[9] = target: T9, 4H883-bA
[10] = target: T10, 4H797-bA
[11] = target: T11, 4H855-bA
[12] = target: T12, 4H754-bA
[13] = target: T13, 4H470-bN
[14] = target: T14, 4H3907-bN
[15] = target: T15, 4H2745-bN
[16] = target: T16, 4H3961-bN
[17] = target: T17, 4H363-bN
[18] = target: T18, 4H2568-bN
[19] = target: T19, 4H344-bN
[20] = target: T20, 4H2619-bN

interaction score [1] | interaction score [2] | interaction score [3] | interaction score [4] | interaction score [5] | interaction score [6] | interaction score [7] | interaction score [8] | interaction score [9] | interaction score [10] | interaction score [11] | interaction score [12] | interaction score [13] | interaction score [14] | interaction score [15] | interaction score [16] | interaction score [17] | interaction score [18] | interaction score [19] | interaction score [20] | Binder
0.496 | -0.94 | -0.879 | -0.368 | -0.575 | -1.48 | -1.53 | -0.579 | -0.374 | -0.233 | -0.914 | 1.57 |  |  |  |  |  |  |  |  | DEIAQLKQENAELKQKNAELEWEIAQLKQ [4H754-bA]
 |  |  |  |  |  |  |  |  |  |  |  | 0.618 | 0.402 | -1.2 | 1.52 | 0.932 | 0.798 | -0.22 | -0.118 | DKIQQLKQEIQELEQEIQELEWKNQELKQ [4H2568-bN]
